B1: H1H20637D (bispecific antibody, V domains shown)
VH 1: QLQLQESGPGLVKPSETLSLTCTVSGGSISSSSYYWVWIRQPPGKGLEWIGNIYFSGSTYYNPSLKSRVTITVDTSKNQFSLKMTSVTAADTAVYYCARPFYGSRGDYYYGMDVWGQGTTVTVSS
VH 2: EIVMTQSPATLSVSPGERATLSCTASQTINSNLAWYQQRPGQAPRLLIYGASTRATGTPARFRGSGSGTEFTLTISSLLSEDFAVYYCQNYNNWPPGGPRTFGPGTKVDIK
VL: not shown
notes: also called anti-IsdB x anti-C1q bispecific antibody
B2: H1H20638D (bispecific antibody, V domains shown)
VH 1: B1 VH 1
VH 2: DIQMTQSPSSLSASIGDRVTITCRTSQDINNYLAWYQQKPGKVPKLLIFSASTLQSGVPSRFSGSGFGTDFTFIISSLQPEDVATYFCQKYDSGRGLSFGGGTKVEIK
VL: not shown
notes: as for B1
B3: H1H20641D (bispecific antibody, V domains shown)
VH 1: B1 VH 1
VH 2: QVQLVESGGGVVQPGRSLRLSCAASGFTFSNYGMHWVRQAPGKGLEWLAVIYYDGIKRYYGDSVQGRFIISRDNSKNTLYLQMNSLRDEDTAVYYCARAFSAAGPYNYYYAMDVWGQGTTVTVSS
VL: not shown
notes: as for B1
B4: H1H20642D (bispecific antibody, V domains shown)
VH 1: B1 VH 1
VH 2: EVQLVESGGGLVQPGGSLRLSCAASGFTFSNYEMNWVRQAPGKGLDWVSYISTSGSVIYYADSVKGRFTISRDNAKNSLYLEMNSLRAEDTAVYYCARGYDFWSGSDYYYGMDVWGQGTTVTVSS
VL: not shown
notes: as for B1
B5: H1H20632D (bispecific antibody, V domains shown)
VH 1: EVQLVESGGGLVQPGRSLRLSCTTSGFTFDDYAMHWVRQVPGQGLEWVAGLSWNSDTIGYADSVKGRFTISRDNAKNSLYLQMKSLKAEDTALYYCTKDFYHSLNNWNYYYFDYWGQGTLVTVSS
VH 2: QVQLVESGGGVVQPGRSLRLSCAASGFTFSSYGMHWVRQAPGKGLEWVAVIWYDGSNKNYADSVKGRFTISRDSSKNTLYLQMNSLRAEDTAVYYCARENSEGYYYGMDVWGQGTTVTVSS
VL: not shown
notes: as for B1
B6: H1H20633D (bispecific antibody, V domains shown)
VH 1: B5 VH 1
VH 2: EVQLVQSGAEVKKPGESLKISCKASGYNFNSYWIGWVRQMPGKGLEWMGIVFPGDSDTRYSPSFQGQVTISADESINTAYLQWSSLKASDTAVYYCARHTRWYLDYWGQGTLVTVSS
VL: not shown
notes: as for B1

How the values were obtained:
[1] = target: T1, native human complement component C1q protein purified from human serum (Quidel) (human, UniProt P02745 23-245; P02746 28-253; P02747 29-245); assay: cell-based or functional assay
[2] = target: T1, native human complement component C1q …; assay: competition ELISA, 6 nM biot-hC1q, competitor plate-coated hIgG2-k
[3] = target: T1, native human complement component C1q …; assay: competition ELISA, 6 nM biot-hC1q, competitor plate-coated hIgM
[4] = target: T1, native human complement component C1q …; assay: competition ELISA, 30 pM biot-hC1q, competitor plate-coated hIgG1-k
[5] = target: T1, native human complement component C1q …; assay: competition ELISA, 30 pM biot-hC1q, competitor plate-coated hIgG3-k
[6] = target: T2, IsdB expressed on the surface of S. aureus Wood 46 (Staphylococcus aureus); assay: ELISA on plate-coated S. aureus Wood 46
T2 construct: whole, on cells
Description: Briefly, S. aureus Wood 46 was grown in RPMI overnight, washed in PBS and adjusted to an OD₆₀₀ of 0.25. MaxiSorp 96 well microtiter plates were coated overnight with 100 μl of S. aureus culture per well. Plates were washed and blocked with 3% BSA. […] Anti-human HRP conjugated secondary antibody was added to washed plates. Luminescence reagents (SuperSignal Pico) were then added to the wells and signal was detected in a plate reader (Victor X3 plate reader, Perkin Elmer) immediately. Luminescence values were analyzed by a four-parameter logistic equation over a 7-point response curve (GraphPad Prism) to determine the binding EC₅₀, of the antibodies.

[7] = target: T1, native human complement component C1q …; assay: cell-based or functional assay; remark: listed apart in the source
[8] = target: T3, Recombinant bacterial IsdB expressed with a hexahistidine tag (IsdB-6xHis; REGN2655) (Staphylococcus aureus, UniProt A6QG30 42-613); assay: SPR Biacore, captured Ab, IsdB-6xHis analyte, 37C
[9] = target: T3, Recombinant bacterial IsdB expressed …; assay: SPR Biacore, captured Ab, IsdB-6xHis analyte, 25C
[10] = target: T1, native human complement component C1q …; assay: SPR Biacore, captured Ab, hC1q analyte, 37C
[11] = target: T1, native human complement component C1q …; assay: cell-based or functional assay; remark: listed apart in the source
[12] = target: T1, native human complement component C1q …; assay: SPR Biacore, captured Ab, hC1q analyte, 25C

T3 sequence (A6QG30 42-613, tags left off): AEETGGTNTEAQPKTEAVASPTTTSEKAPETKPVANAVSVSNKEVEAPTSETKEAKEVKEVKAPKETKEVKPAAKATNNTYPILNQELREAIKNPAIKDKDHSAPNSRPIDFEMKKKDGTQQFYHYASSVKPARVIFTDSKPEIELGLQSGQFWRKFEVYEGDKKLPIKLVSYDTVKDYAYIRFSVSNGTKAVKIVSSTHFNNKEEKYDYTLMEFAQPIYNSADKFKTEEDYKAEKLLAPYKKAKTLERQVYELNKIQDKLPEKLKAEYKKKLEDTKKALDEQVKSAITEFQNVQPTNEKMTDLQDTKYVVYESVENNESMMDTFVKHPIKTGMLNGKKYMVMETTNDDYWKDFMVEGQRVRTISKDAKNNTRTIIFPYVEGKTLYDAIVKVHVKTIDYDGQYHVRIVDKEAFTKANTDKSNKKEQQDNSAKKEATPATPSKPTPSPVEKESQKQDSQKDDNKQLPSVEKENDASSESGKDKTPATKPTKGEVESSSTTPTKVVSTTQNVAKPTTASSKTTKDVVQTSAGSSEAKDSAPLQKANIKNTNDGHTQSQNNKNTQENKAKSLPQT
T1 sequence (P02745 23-245 limits assumed, chain 1 of 3): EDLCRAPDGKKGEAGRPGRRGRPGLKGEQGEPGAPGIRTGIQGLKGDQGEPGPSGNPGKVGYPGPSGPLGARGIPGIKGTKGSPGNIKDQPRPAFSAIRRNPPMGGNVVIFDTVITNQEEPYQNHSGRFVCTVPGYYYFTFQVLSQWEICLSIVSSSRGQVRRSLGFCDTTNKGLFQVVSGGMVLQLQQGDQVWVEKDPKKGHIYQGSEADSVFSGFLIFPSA
T1 sequence (P02746 28-253 limits assumed, chain 2 of 3): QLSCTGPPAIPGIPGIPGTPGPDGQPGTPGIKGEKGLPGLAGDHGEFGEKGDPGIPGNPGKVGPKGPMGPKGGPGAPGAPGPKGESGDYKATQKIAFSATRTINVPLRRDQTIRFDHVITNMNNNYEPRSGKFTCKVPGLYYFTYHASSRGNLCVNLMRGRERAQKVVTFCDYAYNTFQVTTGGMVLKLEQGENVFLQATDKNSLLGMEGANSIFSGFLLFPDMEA
T1 sequence (P02747 29-245 limits assumed, chain 3 of 3): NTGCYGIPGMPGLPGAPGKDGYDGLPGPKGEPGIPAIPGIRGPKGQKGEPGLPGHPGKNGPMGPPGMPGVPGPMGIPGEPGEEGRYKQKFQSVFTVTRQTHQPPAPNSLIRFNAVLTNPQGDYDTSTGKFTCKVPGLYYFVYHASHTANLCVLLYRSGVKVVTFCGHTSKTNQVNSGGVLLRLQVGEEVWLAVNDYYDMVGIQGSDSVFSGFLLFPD
T2 sequence (Q2FZF0 41-613): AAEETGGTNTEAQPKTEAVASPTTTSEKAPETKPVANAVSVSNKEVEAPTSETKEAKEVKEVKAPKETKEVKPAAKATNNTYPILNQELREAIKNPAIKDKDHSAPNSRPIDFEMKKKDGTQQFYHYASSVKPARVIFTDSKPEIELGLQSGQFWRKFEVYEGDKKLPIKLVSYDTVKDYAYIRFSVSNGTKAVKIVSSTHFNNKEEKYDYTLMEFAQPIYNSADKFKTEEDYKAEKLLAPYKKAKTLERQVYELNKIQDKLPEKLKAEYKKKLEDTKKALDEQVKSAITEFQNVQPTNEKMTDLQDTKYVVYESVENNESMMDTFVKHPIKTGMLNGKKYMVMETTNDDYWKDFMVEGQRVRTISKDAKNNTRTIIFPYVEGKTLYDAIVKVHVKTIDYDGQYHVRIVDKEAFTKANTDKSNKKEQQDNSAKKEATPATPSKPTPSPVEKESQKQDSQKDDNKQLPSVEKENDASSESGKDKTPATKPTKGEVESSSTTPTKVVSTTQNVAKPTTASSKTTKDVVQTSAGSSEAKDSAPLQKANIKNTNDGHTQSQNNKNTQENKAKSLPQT

Binder | C1q deposition on S. aureus Cowan I EC50 [1] [nM] | % Blockade with 600 nM bispecific Ab [2] [%] | % Blockade with 600 nM bispecific Ab [3] [%] | % Blockade with 30 nM bispecific Ab [4] [%] | % Blockade with 30 nM bispecific Ab [5] [%] | EC50 [6] [nM] | inhibition of CDC of Daudi cells, IC50 [M] [7] [M] | inhibition of CDC of Daudi cells, Max % Inhibition [7] [%] | Kd [8] [nM] | koff [8] [s⁻¹] | kon [8] [M⁻¹ s⁻¹] | t1/2 [8] [min] | Kd [9] [nM] | koff [9] [s⁻¹] | kon [9] [M⁻¹ s⁻¹] | t½ [9] [min] | Kd [10] [nM] | koff [10] [s⁻¹] | kon [10] [M⁻¹ s⁻¹] | t1/2 [10] [min] | also measured
B1 | 5 | 70 | 88 | -3 | -2 | 11.3 | > 1e-07 | 67 | 17.4 | 0.00149 | 85100 | 7.78 | 9.34 | 0.000468 | 50100 | 24.7 | 2.33 | 0.0407 | 1.75e+07 | 0.28 | IC50 [2]: 100 nM; IC50 [3]: 71 nM; Classical Pathway hemolysis assay % inhibition [11]: 50%; Kd [12]: 1.54 nM; koff [12]: 0.0124 s⁻¹; kon [12]: 8.01e+06 M⁻¹ s⁻¹; t½ [12]: 0.93 min
B2 | 2.55 | 33 | 28 | -30 | -25 | 10.4 | 1e-07 | ≥ 99 | 17.8 | 0.00144 | 80900 | 8.03 | 10.8 | 0.000498 | 46200 | 23.2 | 1.98 | 0.011 | 5.53e+06 | 1.05 | Classical Pathway hemolysis assay % inhibition [11]: 24%; Kd [12]: 1.28 nM; koff [12]: 0.00511 s⁻¹; kon [12]: 4.01e+06 M⁻¹ s⁻¹; t½ [12]: 2.26 min
B3 | 1.29 | 19 | 14 | -17 | -13 | 10.3 | > 1e-06 | 33 | 14.7 | 0.00141 | 95900 | 8.19 | 6.02 | 0.000438 | 72800 | 26.4 | 0.18 | 0.00027 | 1.5e+06 | 42.9 | Classical Pathway hemolysis assay % inhibition [11]: 0%; Kd [12]: 0.154 nM; koff [12]: 0.00068 s⁻¹; kon [12]: 4.38e+06 M⁻¹ s⁻¹; t½ [12]: 17.1 min
B4 | 0.00586 | 80 | 72 | 71 | 96 | 8.57 | 1e-08 | ≥ 99 | 16.7 | 0.00141 | 84600 | 8.19 | 8.26 | 0.000501 | 60700 | 23 | 0.0501 | 0.000412 | 8.23e+06 | 28 | IC50 [2]: 5 nM; IC50 [3]: 3.9 nM; IC50 [4]: 0.11 nM; IC50 [5]: 0.37 nM; Classical Pathway hemolysis assay % inhibition [11]: 99%; Classical Pathway hemolysis assay IC50 [11]: 0.106 nM; Kd [12]: 0.0114 nM; koff [12]: 0.000196 s⁻¹; kon [12]: 1.72e+07 M⁻¹ s⁻¹; t½ [12]: 58.9 min
B5 | 0.529 | 88 | 97 | 90 | 86 | 1.08 | 2.3e-07 | ≥ 99 | 3.41 | 0.000527 | 154000 | 21.9 | 2.21 | 0.000255 | 115000 | 45.2 | 0.175 | 0.00871 | 4.99e+07 | 1.33 | IC50 [2]: 23 nM; IC50 [3]: 18 nM; IC50 [5]: 83 nM; Classical Pathway hemolysis assay % inhibition [11]: 100%; Classical Pathway hemolysis assay IC50 [11]: 1.78 nM; Kd [12]: 0.294 nM; koff [12]: 0.00318 s⁻¹; kon [12]: 1.08e+07 M⁻¹ s⁻¹; t½ [12]: 3.64 min
B6 | 0.203 | 79 | 96 | 93 | 84 | 1.31 | 1.7e-08 | ≥ 99 | 3.41 | 0.00054 | 159000 | 21.4 | 2.04 | 0.000247 | 121000 | 46.9 | 0.487 | 0.0127 | 2.61e+07 | 0.91 | IC50 [2]: 8.2 nM; IC50 [3]: 6.4 nM; IC50 [4]: 1.6 nM; IC50 [5]: 4.8 nM; Classical Pathway hemolysis assay % inhibition [11]: 100%; Classical Pathway hemolysis assay IC50 [11]: 1.42 nM; Kd [12]: 0.271 nM; koff [12]: 0.00348 s⁻¹; kon [12]: 1.28e+07 M⁻¹ s⁻¹; t½ [12]: 3.32 min
